From patent EP4328239A1 (Max-Delbrück-Centrum für Molekulare Medizin in der …, dated 2024)

Biological target: … (SEQ ID NO: 3) in complex with HLA-B*44:03 (human)
Assay: cell-based or functional assay

B1: TCR6 (TCR, V domains shown, not shown: a dimerising Fc or GST)
V domain 1: QKEVEQNSGPLSVPEGAIASLNCTYSDRGSQSFFWYRQYSGKSPELIMFIYSNGDKEDGRFTAQLNKASQYVSLLIRDSQPSDSATYLCAVSSNTGKLIFGQGTTLQVKP
V domain 2: DAGVIQSPRHEVTEMGQEVTLRCKPISGHNSLFWYRQTMMRGLELLIYFNNNVPIDDSGMPEDRFSAKMPNASFSTLKIQPSEPRDSAVYFCASKWGQGAGDTQYFGPGTRLTVL
Question: For B1, which EC50 killing capacity is on record?
Answer: 1.4 E:T ratio
